According to US20160009800A1 (XOMA US, published 2016):

B1: Ab050 (antibody, IgG2, V domains shown)
VH: QVQLVQSGAELKKPGATVKISCKVSGYTFGDYHMHWVKQAPGKGLEWMGLVDPENGETEYGEKFQDRITMAADTSTDTAYMELSSLRSEDTAVYYCARSPSSSGYFRVDGFDIWGQGTMVTVSS
VL: NFMLTQPHSVSESPGKTVSISCTGSSGSIGSNYVQWYQQRPGSAPTTVIYEDNQRPSGVPDRFSGSIDSSSNSASLTISGLKTEDEADYYCQSYYNSNVVFGGGTKLTVL
notes: also called XPA.015.193
B2: Ab067 (antibody, V domains shown)
VH: EVQLVQSGAEVKKPGSSVKVSCKASGGTFSSYAISWVRQAPGQGLEWMGGIIPIFGTANYAQKFQGRVTITADESTSTAYMELSSLRSEDTAVYYCARASGDYDFWSGYYGAEYFQHWGQGTLVTVSS
VL: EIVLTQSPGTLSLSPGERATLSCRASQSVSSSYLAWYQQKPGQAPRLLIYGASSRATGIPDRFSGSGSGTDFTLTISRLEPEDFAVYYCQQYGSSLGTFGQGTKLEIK
notes: also called XPA.015.216
B3: Ab063 (antibody, IgG2, V domains shown)
VH: QVQLQQSGPGLVKPSQTLSLTCAISGDSVSSNSAAWNWIRQSPSRGLEWLGRTYYRSKWYTDYALSVKSRITINPDTSKNQFSLHLNSVTPEDTAVYYCAREGWLGYFDFWGQGTLVTVSS
VL: SSELTQPPSVSVAPGKTATITCGGDNIASKSVHWYQQKPGQAPVLVLYDDSVRPSDIPERFSGSNSANTATLTLTRVEAGDEGEYYCQVWDVRSDHPFFGPGTKVTVL
notes: also called XPA.015.212
B4: Ab081 (antibody, IgG2, V domains shown)
VH: EVQLVETGGGVVQPGRSLRLSCAASGFTFSSYAMHWVRQAPGKGLEWVAVISYDGSNKYYADSVKGRFTISRDNSKNTLYLQMNSLRAEDTAVYYCARHEWGFGMDVWGQGTTVTVSS
VL: DVVMTQSPLSLSVTLGQPASISCRSSLSLVYGDENTYLNWFQQRPGQSPRRLLYKVSDRDSGVPDRFSGSGSGTDFTLKISRVEADDVGVYYCMQGTHWPYTFGQGTKLEIK
notes: Negative modulator; also called XPA.015.247
B5: Ab066 (antibody, IgG2, V domains shown)
VH: EVQLVQSGAEVKKPGSSVKVSCKASGGTFSSYAISWVRQAPGQGLEWMGGIIPIFGTANYAQKFQGRVTITADKSTSTAYMELSRLRSDDTAVYYCARDASYGGNSEGFDYWGQGTLVTVSS
VL: SSELTQDPAVSVAVGQSVRITCQGDSLKNFYATWYQQRPGQAPLLVIFGKNNRPSGIPDRFSGSSSGNTASLTVTGAQADDEADYYCNSPDSSNKLVVFGGGTKLTVL
notes: also called XPA.015.215
B6: Ab069 (antibody, IgG2, V domains shown)
VH: EVQLVQSGAEVKKPGESLKISCKGSGYSFTSYWIGWVRQMPGKGLEWMGIIYPGDSDTRYSPSFQGQVTISADKSISIAYLQWSSLKASDTAMYYCARLGRGYYGMDVWGQGTTVTVSS
VL: SSELTQDPAVSVALGQTVRITCQGDSLRSYYASWYQQKPGQAPVLVIYGKNNRPSGIPDRFSGSRSGNTASLTITGAQAEDEADYYCNSRDSSGNHVVFGGGTKVTVL
notes: also called XPA.015.222
B7: Ab064 (antibody, IgG2, V domains shown)
VH: QVQLVQSGAEVKKPGESLKISCKGSGFSFPSYWIGWVRQMPGKGLELVGIIYPGDSDIRYSPSFQGQVTISADTSISTVYLQWSSLQTTDTATYYCARGGFNWFDPWGQGTLVTVSS
VL: QAVVTQEPSLTVSPGGTVTLTCASSTGAVTSGYYPNWFQQKPGQAPRALIYSTSNKHSWTPARFSGSLLGGKAALTLSGVQPEDEAEYYCLLYYGGAQPWVFGGGTQLTVL
notes: also called XPA.015.213
B8: Ab054 (antibody, IgG2, V domains shown)
VH: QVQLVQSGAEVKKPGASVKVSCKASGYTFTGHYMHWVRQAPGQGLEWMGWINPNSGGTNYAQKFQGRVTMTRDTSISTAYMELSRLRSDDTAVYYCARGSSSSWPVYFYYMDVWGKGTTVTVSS
VL: QSALTQPRSVSESPGKTVTISCTGSGGSIGSNYVQWYQQRPGSAPTTVIFEDNRRPSGVPDRFSGSIHSSSNSASLTISGLKTEDEADYYCQSYVGTIVVFGGGTKVTVL
notes: also called XPA.015.197
B9: Ab052 (antibody, IgG2, V domains shown)
VH: EVQLVQSGAEVKKPGESLKISCKGSGYRFTSYWIGWVRQMPGRGLEWMGIIYPGDSDTRYSPSFQGQVTISVDKSISTAYLQWSSLKASDTAMYYCATHHASGRGLDPWGQGTLVTVSS
VL: QAMLTQPASLSASPGASASLTCTLRSGINVVAYNIYWYRQKSGSPPQSVLRYKSDSDSERDSGVPSRFSGSKDVSANAGILLISGLQSEDEADYYCLIWHNSAWVFGGGTQLTVL
notes: also called XPA.015.195
B10: Ab060 (antibody, IgG2, V domains shown)
VH: QMQLVQSGAEVKKPGSSVKVSCKASGGTFSSYAISWVRQAPGQGLEWMGIINPSGGSTSYAQKFQGRVTMTRDRSTSTVYMELSSLTSEDTAVYYCVRDNHGWSFDYWGQGTLVTVSS
VL: QAVLTQPASLSASPGESARLTCTLPSDINVRYYNIYWYQQKPGSPPRYLLYYYSDSNKDQGSGVPSRFSGSKDVSTNTGILVISGLQSEDEAEYYCMTWSSNGSGVFGGGTQLTVL
notes: also called XPA.015.207
B11: Ab056 (antibody, IgG2, V domains shown)
VH: QVQLVQSGSEVKKPGASVKVSCKASGYTFTNSYMHWVRQAPGQGLEWMGIINPSAGTSYAQKFQGRVTMTRDTSTSTVYMELSSLKSEDTAVYYCARDVGWLPGDYWGQGTLVTVSS
VL: QSALTQPASVSESPGQSITISCTGTGSDIGTYNLVSWYQHHPGKAPKLMIYEVTKRPSGVSNRFSGSKSGNTASLTISGLQAEDEADYYCSSYTSSSTLYVFGTGTKLTVL
notes: also called XPA.015.199

Assays:
human insulin receptor = molecular target: T1, human insulin receptor (human, UniProt P06213 28-1382); test: FACS, serum-starved CHO-K1 cells expressing human INSR, no insulin
T1 construct: whole, on cells; Uncomplexed receptor on serum-starved cells (CHOK1 transfectants or IM-9); also called hINSR; INSR

[1] = molecular target: T2, mouse insulin receptor complexed with human insulin (mouse; human, UniProt P15208 28-1372; P01308 25-54; P01308 90-110); test: FACS, CHO-K1 mouse INSR cells, signal with insulin divided by signal without insulin
T2 construct: whole, on cells;mature; also called muINSR/hINS complex

mouse insulin receptor [2] = molecular target: T3, mouse insulin receptor (mouse, UniProt P15208 28-1372); test: FACS, serum-starved CHO-K1 cells expressing mouse INSR, no insulin
T3 construct: whole, on cells; also called muINSR; mINSR

[3] = molecular target: T2, mouse insulin receptor complexed with …; test: FACS, serum-starved CHO-K1 cells expressing mouse INSR, with insulin
[4] = molecular target: T4, human insulin receptor complexed with human insulin (human, UniProt P06213 28-1382; P01308 25-54; P01308 90-110); test: FACS, CHO-K1 human INSR cells, signal with insulin divided by signal without insulin
T4 construct: whole, on cells;mature; also called hINSR-hINS complex; INS/INSR complex
Experimental: (§1) Twenty five microliter aliquots of cells were plated into 96 well plates, mixed with 25 ul of antibody or PPE and incubated on ice for 1 h.
(§2) The cells were then washed once with FACS buffer and the binding of the antibody was detected by the addition of 25 ul of an appropriate fluorochrome-conjugated secondary antibody. […] After a final 15 min incubation on ice the cells were washed and the pellets resuspended in FACS buffer. The cells were analyzed on a FACSCAN™ (Becton-Dickinson, Milipitas, Calif.) and the data analyzed in both FLOWJO™ (Treestar, Ashland, Oreg.) and Microsoft Excel™.

[5] = molecular target: T4, human insulin receptor complexed with …; test: FACS, serum-starved CHO-K1 cells expressing human INSR, with insulin
Experimental: as §1, §2

[6] = molecular target: T2, mouse insulin receptor complexed with …; test: FACS, serum-starved CHO-K1 cells expressing mouse INSR, with insulin [cont'd]
Experimental: as §1, §2

[7] = molecular target: T2, mouse insulin receptor complexed with …; test: FACS, CHO-K1 mouse INSR cells, signal with insulin divided by signal without insulin [cont'd]
Experimental: as §1, §2

mouse insulin receptor [8] = molecular target: T3, mouse insulin receptor; test: FACS, serum-starved CHO-K1 cells expressing mouse INSR, no insulin [cont'd]

Binder | FACS area under log transformed data MFI (human insulin receptor) | FACS area under log transformed data MFI ratio (+insulin/-insulin) [1] | FACS area under log transformed data MFI (mouse insulin receptor [2]) | FACS area under log transformed data MFI [3] | FACS area under log transformed data MFI ratio (+insulin/-insulin) [4] | FACS area under log transformed data MFI [5] | FACS area under log transformed data MFI [6] | FACS area under log transformed data MFI ratio (+insulin/-insulin) [7] | FACS area under log transformed data MFI (mouse insulin receptor [8])
B1 | 252 | 0.4 | 424 | 170 | – | – | – | – | –
B2 | 1540 | 0.61 | 1280 | 786 | 0.69 | 1060 | – | – | –
B3 | 943 | 0.72 | 1020 | 733 | 0.71 | 674 | – | – | –
B4 | – | – | – | – | – | – | 125 | 0.66 | 189
B5 | 1560 | 0.76 | 1520 | 1140 | 0.74 | 1160 | – | – | –
B6 | 357 | 0.6 | 642 | 383 | – | – | – | – | –
B7 | 1710 | 0.8 | 1020 | 813 | 0.74 | 1270 | – | – | –
B8 | 1130 | 0.51 | 1030 | 519 | 0.32 | 356 | – | – | –
B9 | 445 | 0.45 | 892 | 397 | – | – | – | – | –
B10 | 460 | 1.85 | 210 | 388 | 0.67 | 308 | – | – | –
B11 | 1110 | – | – | – | 0.84 | 927 | – | – | –
